Data taken from paper PMC3492748.

Tests used:
[1] = target: geminin (Xenopus laevis (endogenous in eggs and embryos)) (UniProt O93352); test: co-IP
[2] = target: Cdt1 (Xenopus laevis (endogenous in eggs and embryos)) (UniProt Q9I9A7); test: co-IP

| Substance | decline of co-precipitation over 20 minutes after fertilisation [1] [%] | decline of co-precipitation over 20 minutes after fertilisation [2] [%] |
| --- | --- | --- |
| Cdt1 (from UniProt Q9I9A7 1-617) (natural protein) | > 50 | – |
| geminin (from UniProt O93352 1-219) (natural protein) | – | > 50 |
